{"source": "paper PMC5842376", "target": "ISCU(M108I) (human) (UniProt Q9H1K1)", "assay": "ITC"}
{"substance": "human cysteine desulfurase complex (NIA)2, [NFS1]2:[ISD11]2:[Acp]2 (from UniProt Q9HD34 1-91; P0A6A8 1-78)", "values": [{"measurement": "Kd", "value": 2.6, "unit": "µM"}]}
